Results on twelve sequences are retold here after a protein production outcome set (Wang et al. 2014).

This data set is described as follows: label from the status in PepcDB records.
On to “MSSKPLLTLQELAAQNILRNEALAISALQYLPELFLPQLLKQAYDGNHLKVLRAIVSSWPFPRLPLGALKKRTPYLETQLQVVLEEVDKLLIQEVHPREYKLEVLDLRSVGQNYLNVWPGAMDDWLPKTTQTDPCCSKTVMTQPLKVLVDLQLNNRGQSRLFSYLVQWSDRRKGLLQLYCNKLQIWSPSQQNYRKLSQKVNLDYVETLGLHSSCSPSFLLNFAPYLRQMRNLRKLALSNIREEHIISPEKRRCIITRFTLQILKLESLQKLHLDAVCFLEGHLDQLLGSVKTSLDELAVTHCNLSVSEWSHFSEFPCVSQLQQLNLENVRLTGLSPEPLQVLLVKAGPTLVALDLEDCHLEDGQLYAILPALSKCFKLTKFSFYGNQISMLAMKDLLHHTASLIHLRLELYPVPQDSYDYHGTPLMQRMQQHCDELMNLLKTFRNPGRVFFGTDRCDQCCNRYIYNKTIMCNCRRSY”, for which the protein production entry is listed as “failed”.

“MSDIPSDLHYTAEHEWIRRSGDDTVRVGITDYAQSALGDVVFVQLPVIGTAVTAGETFGEVESTKSVSDLYAPISGKVSEVNSDLDGTPQLVNSDPYGAGWLLDIQVDSSDVAALESALTTLLDAEAYRGTLTE”: the protein production result is recorded as “not failed”. Turning to “MIFWRLLQEFASTTIHGTKGICHADELIEKGQIDKAEQAVLTLLERKPNDANILHLAGVVALRKGQNSRAVALISKALEYAPNESLYYFNLGNAYLADGAIDLGIQALQDATRLDPERMEAWMNLGLALVEAKRHPEAVAAFERLLEIDPDHEADVAFASALVGAGIMLKESAMVDRGISVLESKLRDGYERYAAGVILARALEHRNRLSEAIRQHQALLEANPEHIGIRNNLARCLVQLGRVEEARTHYRLCVKSAPDKYHAFSALLAGLNYEPNLTAAMHEAEVRNWEKQLALPHYPVEPEFPNERDPERPLKIGYLSPDLRQHVVGHNFLPVLEHRNREQFSVFCYHIGEKQDDMSRRIAALADHWRHVHGASDDEVAALIREDRVDILVDLSGHTSHTQPLVFARKPAPVQVSWLGYFDTTGLATMDWFITDPYSSPPDQKQYFSERLYRMPHTRLYYHPYPDMPAVGQLPAKRNGYITFGCLNNLAKINTEVLDLWAQILAASPTSRLLIQTVALCDRLNLERFRALCVERGLDPARLELRPATSLEKFAQTYHQIDIALDPFPFCGGFTSFDALWMGVPVITLEQQRLAGRQTLSMLMNLGLPHLIASNKTDYVSIALELSRDSSEIEQLRSELRSRFLQSPLIDHCRFTRELEKAYRFFWSHWCTEKKQSSARKGISAPMDAYPSRRQISAT”, the protein production result was “failed”. The value for “MARPSGPATMRTTDGGPMRDIDWLLTDAHALRERGELDPARALYDEALEKARATGETEGLAKALRHVSDMDREAGRLEAALAAAEEAATLYGALGREHRLDLANALRLTALALEALGRPALQPWREAGDLYAELDIAAGLAEAERHLGLVVRPAQSVELEPLARLWWQGWRDAHLPIVPEALARLRTLESFTTRMAAALPQVRVLGPVGAPIGLHLIKDDELNQLYLAAEARGAGFAAVLMADAEAHLADAGVRKAWLACAIGNDRAARFYEKSGWTRARAEIVPTETPAGPFPLEVWRYEKVLTRSEPQTL” was “failed”; that for “MEVNRLSALTPPMGWNSWDCYGASVTEEEVLGNAEYMANHLKKYGWEYIVVDIQWYEPTANSSAYNPFAPLCMDEYGRLLPATNRFPSAKNGAGFKPLSDAIHDLGLKFGIHIMRGIPRQAVYENSPVLGSTKTAREIAHTNSICPWNTDMYGVDPTKEGAQSYYNSLFELYAQWGVDFVKVDDIAASRLYDTHLEEIKMIQRAIQACGRPMVLSLSPGPAPIKYAHHFKTNANMWRITDDFWDDWSLLYQMFERCEVWEKHIGTGHWPDCGMLPLGHIGIRSVDGPGGDRWTRFTKDEQLTMMNLWAICHSPLMFGGELRDNDEWTLSLLTNEGILSINQKSVLNRFVYREEDKVAWAANGRNGEAYVALFNLHDQQKTLQFRLDMVGIMETVQLFNVWDRSFLQSLAPSESFQIELKPHQSMMLKLSPDR” was “not failed”. “MIRLSNENTIFFMDKENVPIASCQSGDTVIFETKDCFSDQITNEEQALTSIDFNRVNPATGPLYVEGARRGDMLEIEILDIKVGKQGVMTAAPGLGALGESLNSPTTKLFPIEGDDVVYSTGLRLPLQPMIGVIGTAPPGEPINNGTPGPHGGNLDTKDIKPGTTVYLPVEVDGALLALGDLHAAMGDGEILICGVEIAGTVTLKVNVKKERMFPLPALKTDTHFMTIASAETLDAAAVQATKNMATFLANRTALSIEEAGMLLSGAGDLYVSQIVNPLKTARFSLALHYFEKLGVDLCN”: the protein production result is recorded as “not failed”. The value for “MSKVLQISSAIPELDYANIPKEIIPFLASYNLIPQLLSQRIIESAIAPITCTQAEISHALDQFYQHWDLTTAEKIKDWCLRYGLNAEKLKLLATRKLRVEKFKQINWRHQLESYFLKRKKYLDRVIYSLIQTENKSVVNELFFRIAEGEDSFAELARKYSQGAEADRGGIIGPVELGSITPNFAQLLYTSQVGVVQPPVAFGNTWVIVRVEKLIPAQLDDFMRQRLLQENFEDWFQQQLNQLSPEEKIWMGINPKSDQVQEMA” was “failed”.

“MSIEIRKLSIEDLETLIEVARESWKWTYAGIYSEEYIESWIREKYSKEKLLNEIVRSQSNLDILFLGAFADSTLIGFIELKIIANKAELLRLYLKPEYTHKKIGKTLLLEAEKIMKKKGILECRLYVHRQNSVGFSFYYKNGFKVEDTDGSDFIMEKKY”: the protein production result is “not failed”.

On to “MIMNTKERSLLGSWIIWSVAYYMYYPFISIYLSRFVEESKLSLFFVVFQAVSLPLPLIGARLSKRNRILPIIIGMLVGGIGMIMLPFSRNILEATIFMSLNYFISLSLPSYYSLMSEVGEGTITRIWSLSILPSIIMPSLGGLLAQYFGLRLLFMIGGIVLATSFLPMVNSSYNSSSQSLLNFNITIRSFLPAILILPIAMEFPYIYLVVYNYFHLTKEYVGIIATSAEILGMLLTYLASKLIFRKKYLLSLSLFLFSLTSLYFLSPTIAIFFGCWEVIVPLTLEYFSSRKTVYDFALITTMQGLGWVLGYLIDYFIPNISLLLLSSSLIAFLLALMIVFTKD”, for which the protein production result was “failed”. “MNYPKAILLSLALLAMHSLNAEVVTYPAGVGVKTLNDFSVEVRQGSGPWLPVDVYPVKVDRVDEKGHNVEVASIAYFDFDGMVDVRVISNKERVNSVRVRPLSYKITPDCVGDTVTFSLSRPRNLSVEVNGDIFHNLHLFANPIDKFRPSDKEIQRALKKKKGSNLIYFGPGVHNLPNDTLFVPSGTTVYIDGGARVYGNIFTEGAHDVNIFGRGEVHPDGRGAGVWVRRSKNVRIDGIVVSQLPIGQCDSVELTNVKSISYYGWGDGMDVFSSSNVILDGVFCRNSDDCAAVYASTQGFKGGSNNVLVKNATLWADVAHPINIGGHGDPNGMDTVQNVTFRNIDILDQAEKQIDYQGCLAINPGDNTLVRNITFENIRIEDFRNGQLVNFRISFNPKYCVSTGRGIQNVLVKDVTYNGSGENLSIIAGYDENHKISGIRFVNLVVNGRKITDDMPGKPKWYKTGDMAGIFVGEHVENLSFE”: the protein production result is reported as “failed”. The value for “EYISVKSQNELLEASTPHPGTRNHIPQLDVDANELALVYRARGMSEADAEQKAAEAFVNLRNAEDQAIIDEPRNDEPING” was “failed”; that for “MTAPKITQKFNEVETKTTEILNKVLTDDRYFTVTSSFKQDATLGIEYYVTKVTPKTTEAKKSMVQKTFAYDFEKSIDPTSSYFGTTNRETVLSMAKRKRSVVAINASGWRSNGEVMGLQIKDGVLYKDYDAAGYTGAEACVFFDDGTMKVYGNREVDADILISKGARNSFAFGIWLVKDSKPRTAQMTTWADLNVKHPRQAIGQRSDGTLVIITVDGRSLRSSGITAYDMPSLFLSEGCINAFLLDGGGSSQTAVEGKYINNISDGIERAVVDTLTISYPDDDTDSRFFEVQEGRGLATSLNRRVEFIESKPTWNVLDLGFSPDGLIDNTAKFKKALSDLSEKGGGKLHFPKGTYLIGKQNTTSASEKIELPSNVSIVGERRSYTKLLRNPNHSLDELLRITDHNYIEGIEIDGNSSVNKSSCRLIAGGNIKSFKMKDCSLVNATDRGVSIHGIGKSITIEGMYISNIANECINVAEGEIIKLIDSEITFSGTALWVGNAANIFTKNNLAKSLKTFVRYKNSQNAICSGNIITNNIDRAIWGSVREAVFSDNVFKQCHSDYHLYFIQEDTGTNDLIVTGNSVYSDVEGTAFIRTPSDIDRRRVSGNVGNIPSLNLDLEHHHHHH” was “not failed”.
